Usually Kd stands for a measure of binding affinity in units of concentration. A lower Kd goes with a tighter complex. What is called IC50 is the concentration that gives 50% inhibition.

Here are results for 17 sequences from the Immune Epitope Database (IEDB).

One experiment concerns the target HLA-C*15:02. Briefly: IEDB peptide-MHC binding, purified MHC/direct/fluorescence; filed as Kd, often an IC50 or EC50 that approximates it; ≥ and ≤ were set here for values at or beyond the usual limits of such assays.
For the next experiment, the target named is HLA-B*39:01. Briefly: IEDB peptide-MHC binding, purified MHC/competitive/fluorescence; filed as Kd, often an IC50 or EC50 that approximates it; ≥ and ≤ were set here for values at or beyond the usual limits of such assays. As to conditions: source organism: Escherichia coli str. K-12 substr. MG1655.
Experiment [1] addresses HLA-A*01:01. The experiment can be described thus: IEDB peptide-MHC binding, purified MHC/direct/fluorescence; filed as Kd, often an IC50 or EC50 that approximates it; ≥ and ≤ were set here for values at or beyond the usual limits of such assays.
Experiment [2] deals with HLA-A*02:01. The experiment is described as above.
The target in experiment [3] is HLA-A*03:01. The experiment is described as above.
In experiment [4] the target is HLA-A*11:01. The experiment is described as above.
Experiment [5] addresses HLA-A*24:03. The experiment is described as above.
Another experiment has as its target HLA-A*26:01. The description is as above.
The next experiment deals with HLA-A*30:01. The experiment is described as above.
In a further experiment the target is HLA-A*31:01. Described as above.
The target in a further experiment is HLA-A*69:01. The experiment is described as above.
The target in experiment [6] is HLA-B*07:02. The experiment is described as above.
Experiment [7] concerns the target HLA-B*08:01. The experiment is described as above.
Experiment [8] deals with HLA-B*15:01. The experiment is described as above.
The target in the next experiment is HLA-B*27:05. The experiment is described as above.
The next experiment has as its target HLA-B*40:01. The experiment is described as above.
In the next experiment the target is HLA-B*44:02. The description is as above.
Experiment [9] addresses HLA-B*58:01. The description is as above.
The target of experiment [10] is HLA-A*02:01. The experiment can be described thus: IEDB peptide-MHC binding, purified MHC/competitive/fluorescence; ≥ and ≤ were set here for values at or beyond the usual limits of such assays. As to conditions: source organism: Zaire ebolavirus.
The target in a further experiment is HLA-A*24:02. The experiment is described as above. As to conditions: source organism: Zaire ebolavirus.
Experiment [11] has as its target HLA-B*07:02. Described as above.
The target in experiment [12] is HLA-B*08:01. Described as above. As to conditions: source organism: Zaire ebolavirus.
The target of experiment [13] is HLA-A*03:01. The description is as above.
Experiment [14] deals with HLA-B*15:01. The experiment is described as above.
Experiment [15] has as its target HLA-A*24:03. The experiment can be described thus: IEDB peptide-MHC binding, purified MHC/competitive/fluorescence; filed as Kd, often an IC50 or EC50 that approximates it; ≥ and ≤ were set here for values at or beyond the usual limits of such assays.
The next experiment has as its target HLA-B*51:01. The description is as above. As to conditions: source organism: Escherichia coli str. K-12 substr. MG1655.
Experiment [16] deals with HLA-B*58:01. Described as above.
Experiment [17] addresses HLA-A*11:01. The experiment can be described thus: IEDB peptide-MHC binding, purified MHC/competitive/fluorescence; ≥ and ≤ were set here for values at or beyond the usual limits of such assays. As to conditions: source organism: Zaire ebolavirus.
Experiment [18] addresses HLA-A*01:01. The experiment can be described thus: IEDB peptide-MHC binding, purified MHC/competitive/fluorescence; filed as Kd, often an IC50 or EC50 that approximates it; ≥ and ≤ were set here for values at or beyond the usual limits of such assays. As to conditions: source organism: Escherichia coli B171.
The target of experiment [19] is HLA-A*03:01. The description is as above. As to conditions: source organism: Escherichia coli B171.
Experiment [20] has as its target HLA-B*15:01. The description is as above. As to conditions: source organism: Escherichia coli B171.
Setting [21] is: source organism: Escherichia coli str. K-12 substr. MG1655.
Setting [22] is: source organism: Campylobacter jejuni RM1221.
Setting [23] is: source organism: Campylobacter jejuni.
Setting [24] is: source organism: Zaire ebolavirus.
Setting [25] is: source organism: Escherichia coli O157:H7.
The mark [26] stands for this setting: source organism: Coxiella burnetii.
[27] abbreviates: source organism: Bacillus anthracis str. A2012.
[28] abbreviates: source organism: Brucella melitensis.
[29] abbreviates: source organism: Pseudomonas aeruginosa.
Setting [30] is: source organism: Pseudomonas aeruginosa UCBPP-PA14.

Turning to AKIEAPLLL, the Kd with HLA-C*15:02 (setting [21]) is no less than 20 µM; with HLA-B*39:01 it was 0.0075 µM.

Regarding ALIVAIWDK, the Kd was no less than 20 µM with HLA-A*01:01 [1] (setting [22]); no less than 20 µM with HLA-A*02:01 [2] (setting [23]); 2.7 µM with HLA-A*03:01 [3] (setting [23]); 0.553 µM in the experiment with HLA-A*11:01 [4] (setting [23]); no less than 20 µM in the experiment with HLA-A*24:03 [5] (setting [22]); no less than 20 µM with HLA-A*26:01 (setting [22]). Also, the Kd is 8.54 µM with HLA-A*30:01 (setting [23]); 11.8 µM with HLA-A*31:01 (setting [23]); no less than 20 µM with HLA-A*69:01 (setting [22]); no less than 20 µM with HLA-B*07:02 [6] (setting [22]); no less than 20 µM with HLA-B*08:01 [7] (setting [22]); no less than 20 µM with HLA-B*15:01 [8] (setting [22]). Moreover, the dissociation constant (Kd) with HLA-B*27:05 (setting [22]), with HLA-B*40:01 (setting [22]), with HLA-B*44:02 (setting [22]) and with HLA-B*58:01 [9] (setting [22]) was no less than 20 µM in each case.

Turning to EVNSFKAAL, the IC50 with HLA-A*02:01 [10] was no less than 236 µM; with HLA-A*24:02 it was 33.2 µM; in the experiment with HLA-B*07:02 [11] (setting [24]) it was no less than 139 µM; with HLA-B*08:01 [12] it was no less than 85.9 µM.

Turning to GITGGHIPK, the dissociation constant Kd in the experiment with HLA-A*01:01 [1] (setting [25]) was no less than 20 µM; with HLA-A*02:01 [2] (setting [25]), no less than 20 µM; with HLA-A*03:01 [3] (setting [25]), 0.392 µM; in the experiment with HLA-A*11:01 [4] (setting [25]) it was 0.101 µM; with HLA-A*24:03 [5] (setting [25]) it was no less than 20 µM; in the experiment with HLA-A*26:01 (setting [25]) it was no less than 20 µM. The Kd with HLA-A*30:01 (setting [25]) was 0.0722 µM; in the experiment with HLA-A*31:01 (setting [25]), no less than 20 µM; with HLA-A*69:01 (setting [25]), no less than 20 µM; in the experiment with HLA-B*07:02 [6] (setting [25]), no less than 20 µM; with HLA-B*08:01 [7] (setting [25]), no less than 20 µM; in the experiment with HLA-B*15:01 [8] (setting [25]) it was no less than 20 µM. Besides, the Kd with HLA-B*27:05 (setting [25]), with HLA-B*40:01 (setting [25]), with HLA-B*44:02 (setting [25]) and in the experiment with HLA-B*58:01 [9] (setting [25]) was no less than 20 µM throughout.

Regarding IIAVARKHH, the IC50 came to 27.7 µM with HLA-A*03:01 [13] (source organism: Variola virus), 59.7 µM with HLA-B*07:02 [11] (source organism: Variola virus) and 27.2 µM with HLA-B*15:01 [14] (source organism: Variola virus).

For KGPDKLQVY, the equilibrium dissociation constant (Kd) with HLA-A*01:01 [1] (setting [26]) was no less than 20 µM; with HLA-A*02:01 [2] (setting [26]) it was no less than 20 µM; with HLA-A*03:01 [3] (setting [26]), no less than 20 µM; with HLA-A*11:01 [4] (setting [26]), no less than 20 µM; in the experiment with HLA-A*26:01 (setting [26]), no less than 20 µM; with HLA-A*30:01 (setting [26]), 12.3 µM. In addition, the Kd with HLA-A*31:01 (setting [26]) was no less than 20 µM; with HLA-A*69:01 (setting [26]) it was no less than 20 µM; with HLA-B*07:02 [6] (setting [26]), no less than 20 µM; with HLA-B*08:01 [7] (setting [26]), no less than 20 µM; in the experiment with HLA-B*15:01 [8] (setting [26]), 2.42 µM; in the experiment with HLA-B*27:05 (setting [26]), no less than 20 µM. Further, the dissociation constant (Kd) with HLA-B*40:01 (setting [26]), in the experiment with HLA-B*44:02 (setting [26]) and with HLA-B*58:01 [9] (setting [26]) was no less than 20 µM each time.

KWGKKIILF: in the experiment with HLA-A*24:03 [15] (source organism: Bacillus anthracis str. A0488), the dissociation constant (Kd) worked out at 0.0003 µM. In other words, the sub-nanomolar range.

LAWQRTLKW: the Kd with HLA-B*51:01 was no less than 20 µM; with HLA-B*58:01 [16] (setting [21]), 0.0083 µM.

In the case of LHPLARTAK, the IC50 with HLA-A*03:01 [13] (setting [24]) was 34.6 µM; with HLA-A*11:01 [17], 15.4 µM; with HLA-B*07:02 [11] (setting [24]) it was no less than 158 µM; with HLA-B*08:01 [12] it was no less than 277 µM.

Consider MASENSSAM, for which the IC50 in the experiment with HLA-A*02:01 [10] was found to be 12.1 µM; with HLA-B*07:02 [11] (setting [24]) it was 28.4 µM; with HLA-B*15:01 [14] (setting [24]), 21.9 µM.

NAFHHPSAV registered an equilibrium dissociation constant (Kd) with HLA-C*15:02 (source organism: Homo sapiens) of 0.695 µM.

Consider NTPVYKLDI, for which the IC50 in the experiment with HLA-B*07:02 [11] (setting [24]) was no less than 119 µM.

On to RAFSLYMTL, for which the Kd with HLA-C*15:02 (setting [27]) came out at 0.466 µM; in the experiment with HLA-A*24:03 [15] (setting [27]) it was 0.0586 µM.

Regarding RLWNGRRCR, the dissociation constant (Kd) with HLA-A*01:01 [1] (setting [28]) is no less than 20 µM; with HLA-A*02:01 [2] (setting [28]), no less than 20 µM; in the experiment with HLA-A*03:01 [3] (setting [28]), 0.634 µM; with HLA-A*11:01 [4] (setting [28]), 11.4 µM; with HLA-A*24:03 [5] (setting [28]), no less than 20 µM; in the experiment with HLA-A*26:01 (setting [28]) it was no less than 20 µM. In addition, the dissociation constant (Kd) is 1.75 µM with HLA-A*30:01 (setting [28]); 0.0615 µM in the experiment with HLA-A*31:01 (setting [28]); no less than 20 µM with HLA-A*69:01 (setting [28]); no less than 20 µM with HLA-B*07:02 [6] (setting [28]); no less than 20 µM with HLA-B*08:01 [7] (setting [28]); no less than 20 µM with HLA-B*15:01 [8] (setting [28]). Further, the Kd was 2.04 µM with HLA-B*27:05 (setting [28]), no less than 20 µM in the experiment with HLA-B*40:01 (setting [28]), no less than 20 µM in the experiment with HLA-B*44:02 (setting [28]) and no less than 20 µM with HLA-B*58:01 [9] (setting [28]).

VSALRLFNY: the equilibrium dissociation constant (Kd) is 0.787 µM in the experiment with HLA-A*01:01 [18], no less than 20 µM in the experiment with HLA-A*03:01 [19], 0.796 µM in the experiment with HLA-B*15:01 [20] and 1.02 µM with HLA-B*58:01 [16] (source organism: Escherichia coli B171).

For VSSFQDILL, the Kd with HLA-B*58:01 [16] (source organism: Influenza A virus (A/X-31(H3N2))) came out at 0.687 µM.

For YTFCRLNVK, the Kd was 2.36 µM with HLA-A*01:01 [1] (setting [29]); 11.5 µM with HLA-A*02:01 [2] (setting [29]); 0.213 µM in the experiment with HLA-A*03:01 [3] (setting [29]); 0.0487 µM with HLA-A*11:01 [4] (setting [29]); no less than 20 µM with HLA-A*24:03 [5] (setting [30]); no less than 20 µM with HLA-A*26:01 (setting [30]). Also, the dissociation constant Kd with HLA-A*30:01 (setting [29]) was 0.0138 µM; with HLA-A*31:01 (setting [29]), 0.265 µM; with HLA-A*69:01 (setting [30]) it was no less than 20 µM; with HLA-B*07:02 [6] (setting [30]) it was no less than 20 µM; with HLA-B*08:01 [7] (setting [29]), 10.6 µM; with HLA-B*15:01 [8] (setting [30]), no less than 20 µM. Also, the Kd with HLA-B*27:05 (setting [30]), in the experiment with HLA-B*40:01 (setting [30]) and in the experiment with HLA-B*58:01 [9] (setting [30]) was no less than 20 µM throughout.
